{"source": "paper PMC10873206", "biological_target": "UBE2R1 E108A (human) (UniProt P49427)", "sequence (P49427 whole entry E108A)": "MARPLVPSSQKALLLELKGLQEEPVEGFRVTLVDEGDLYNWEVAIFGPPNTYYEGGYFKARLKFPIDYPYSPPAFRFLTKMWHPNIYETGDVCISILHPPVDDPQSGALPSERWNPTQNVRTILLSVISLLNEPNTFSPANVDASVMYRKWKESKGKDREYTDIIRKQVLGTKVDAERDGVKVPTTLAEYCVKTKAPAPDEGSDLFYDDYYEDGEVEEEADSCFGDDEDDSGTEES"}
{"substance": "D77 acceptor ubiquitin R54D (from UniProt P0CG48 1-76) (natural protein)", "values": [{"measurement": "Km of unanchored D77 acceptor ubiquitin for UBE2R1 in di-ubiquitin synthesis (K48R donor ubiquitin, neddylated CUL2–RBX1 WT); saturation not reached, top concentration given", "result": "> 800", "unit": "µM"}]}
